Columns and labels:
[1] = target: T1, collagen-binding, serum albumin-fused IL-4 variant (CBD-SA-IL-4) (UniProt P04275); assay: ELISA
[2] = target: T1, collagen-binding, serum albumin-fused …; assay: SPR

| Binder | Kd [1] [nM] | koff [2] [s⁻¹] |
| --- | --- | --- |
| IL-4Rα-Fc (Fc fusion) IKVLGEPTCFSDYIRTSTCEWFLDSAVDCSSQLCLHYRLMFFEFSENLTCIPRNSASTVCVCHMEMNRPVQSDRYQMELWAEHRQLWQGSFSPSGNVKPLAPDNLTLHTNVSDEWLLTWNNLYPSNNLLYKDLISMVNISREDNPAEFIVYNVTYKEPRLSFPINILMSGVYYTARVRVRSQILTGTWSEWSPSITWYNHFQLPLIQR | 0.118 |  |
| collagen III (natural protein) QYDSYDVKSGVAVGGLAGYPGPAGPPGPPGPPGTSGHPGSPGSPGYQGPPGEPGQAGPSGPPGPPGAIGPSGPAGKDGESGRPGRPGERGLPGPPGIKGPAGIPGFPGMKGHRGFDGRNGEKGETGAPGLKGENGLPGENGAPGPMGPRGAPGERGRPGLPGAAGARGNDGARGSDGQPGPPGPPGTAGFPGSPGAKGEVGPAGSPGSNGAPGQRGEPGPQGHAGAQGPPGPPGINGSPGGKGEMGPAGIPGAPGLMGARGPPGPAGANGAPGLRGGAGEPGKNGAKGEPGPRGERGEAGIPGVPGAKGEDGKDGSPGEPGANGLPGAAGERGAPGFRGPAGPNGIPGEKGPAGERGAPGPAGPRGAAGEPGRDGVPGGPGMRGMPGSPGGPGSDGKPGPPGSQGESGRPGPPGPSGPRGQPGVMGFPGPKGNDGAPGKNGERGGPGGPGPQGPPGKNGETGPQGPPGPTGPGGDKGDTGPPGPQGLQGLPGTGGPPGENGKPGEPGPKGDAGAPGAPGGKGDAGAPGERGPPGLAGAPGLRGGAGPPGPEGGKGAAGPPGPPGAAGTPGLQGMPGERGGLGSPGPKGDKGEPGGPGADGVPGKDGPRGPTGPIGPPGPAGQPGDKGEGGAPGLPGIAGPRGSPGERGETGPPGPAGFPGAPGQNGEPGGKGERGAPGEKGEGGPPGVAGPPGGSGPAGPPGPQGVKGERGSPGGPGAAGFPGARGLPGPPGSNGNPGPPGPSGSPGKDGPPGPAGNTGAPGSPGVSGPKGDAGQPGEKGSPGAQGPPGAPGPLGIAGITGARGLAGPPGMPGPRGSPGPQGVKGESGKPGANGLSGERGPPGPQGLPGLAGTAGEPGRDGNPGSDGLPGRDGSPGGKGDRGENGSPGAPGAPGHPGPPGPVGPAGKSGDRGESGPAGPAGAPGPAGSRGAPGPQGPRGDKGETGERGAAGIKGHRGFPGNPGAPGSPGPAGQQGAIGSPGPAGPRGPVGPSGPPGKDGTSGHPGPIGPPGPRGNRGERGSEGSPGHPGQPGPPGPPGAPGPCCGGVGAAAIAGIGGEKAGGFAPYYG |  | 0.0056 |
